From patent publication US10240180B2, “Multiplexed screening of enzyme activities using nanostructure-initiator mass spectrometry” (The Regents of the University of California, priority 2011, dated 2019)

Columns and labels:
Type in all cases: biochemical
[1] = Separate analysis of β-xylosidase activity (NIMS); conditions: XB-F17 substrate, 1 h
Method: The separate characterization of β-glucosidase and β-xylosidase activity was carried out in reaction volumes of 20-50 μL, by mixing 0.1 mM cellobiose with 8 μg of NS50010 in 50 mM sodium acetate buffer (pH 4.8), or 0.1 mM xylobiose with 0.13 μg (in […]) or 0.33 μg (in 50 μL) of 1,4-β-D-xylosidase in 50 mM potassium phosphate buffer (pH 7.5) with 1 mg/mL BSA. For the competition studies with cellobiose, samples additionally contained 10, 25, or 50 mM of unlabeled cellobiose (Sigma-Aldrich; St. Louis, Mo.). Other buffers used for the determination of the pH optima were McIlvaine's citrate/phosphate buffer (pH 2.6 and 6.0), 50 mM Tris buffer (pH 9.0) for NS50010, and 50 mM potassium phosphate buffer (pH 6.0), 50 mM Tris buffer (pH 9.0), 50 mM sodium borate buffer (pH 11.0), all with 1 mg/mL BSA for the β-xylosidase. Samples were incubated for 1 h at 35° C. (β-xylosidase) or 50° C. […]
In FIG. 4a, the determined temperature optima for the used enzymes were 50-60° C. for β-glucosidase (black) and 35° C. for β-xylosidase (gray). In FIG. 4b, the determined pH optima were around pH 4.8 for β-glucosidase (black) and around pH 7.5 for β-xylosidase (gray). […]
(§1) In each case 0.5-1 μL per quenched reaction sample was spotted onto the NIMS surface and removed after an incubation of ˜30 s. […] Enzyme activities were determined by forming product-to-substrate ratios.

[2] = Multiplexed β-glucosidase/β-xylosidase assay with known enzymes, cellobiose substrate; conditions: equal amounts CB-F17 and XB-F17 (0.1 mM each), 1 h
Text: (§2) It can be difficult to discriminate between several products in simultaneous reactions using conventional spectroscopic methods since these reactions typically yield the same outputs and there are only a few unique absorption or emission patterns that can be resolved separately. In contrast, mass spectrometry can resolve thousands of ions and therefore we have discovered that it is well-suited for the parallel detection of large numbers of reaction products where the substrates and occurring products differ in mass. This is the case, for example, when using pentose and hexose-based substrates at the same time. The hydrolysis of polysaccharides with identical masses (e.g. cellobiose and maltose) can even be analyzed in the same run by using different chemical structures in the linker or perfluorinated tags of varying length. Thus, potentially dozens of enzymatic conversions can be tested simultaneously using this method. Here both β-glucosidase and β-xylosidase activities were detected simultaneously utilizing a substrate cocktail comprised of equal amounts of CB-F17 and XB-F17. In the non-enzyme control only signals for cellobiose and xylobiose were detectable (FIG. 5a). […]
as §1

[3] = Multiplexed β-glucosidase/β-xylosidase assay with known enzymes, xylobiose substrate; conditions: equal amounts CB-F17 and XB-F17 (0.1 mM each), 1 h
Text: as §2, §1

B1: β-xylosidase: 1,4-β-D-xylosidase from Bacillus pumilus purchased from Megazyme (protein, UniProt P07129 1-535, looked up)
Beta-xylosidase: MKITNPVLKGFNPDPSICRAGEDYYMAVSTFEWFPGVQIYHSKDLIHWRLAARPLQKTSQLDMKGNPDSGGVWAPCLSYADGQFWLIYSDIKVVDGPFKDGHNYLVTADAVDGEWSDPVRLNSSGFDPSLFHDPSGKKYVLNMLWDHREKHHSFAGIALQEYSVSEKKLVGERKVIFKGTPIKLTEAPHLYYINDVYYLLTAEGGTRYEHAATIARSSRIDGPYEVHPDNPILTAFHAPSHPLQKCGHASIVQTHTNEWYLAHLTGRPIHSSKESIFQQRGWCPLGRETAIQKLEWKDGWPYVVGGKEGLLEVEAPAMSVKEFSPTYHIVDEFKDSSLNRHFQTLRIPFTDQIGSVTENPHHLRLYGQESLTSKFTQAFVARRWQSFYFEAETAVSFFPKNFQQAAGLVNYYNTENWTALQVTYDDALGRILELSVCENLAFSQPLIKKIIIPDEIPYVYLKVTVQRETYTYSYSFDQQEWEKIDVPLESTHLSDDFIRGGGFFTGAFVGMQCQDTSGERLPADFKYFRYEETTE
temperature optimum [1]: 35 °C | pH optimum ([1]; 35° C.): ~7.5 pH | cleavage of cellobiose (CB-F17) in substrate cocktail [2]: no enzymatic cleavage of cellobiose | cleavage of xylobiose (XB-F17) in substrate cocktail [3]: conversion of xylobiose to xylose
